Reference: patent publication US20180362645A1

What was measured:
Experiment in all cases: cell-based or functional assay
VPAC1 = target: T1, VPAC1
T1 sequence (P32241 whole entry, species assumed, looked up): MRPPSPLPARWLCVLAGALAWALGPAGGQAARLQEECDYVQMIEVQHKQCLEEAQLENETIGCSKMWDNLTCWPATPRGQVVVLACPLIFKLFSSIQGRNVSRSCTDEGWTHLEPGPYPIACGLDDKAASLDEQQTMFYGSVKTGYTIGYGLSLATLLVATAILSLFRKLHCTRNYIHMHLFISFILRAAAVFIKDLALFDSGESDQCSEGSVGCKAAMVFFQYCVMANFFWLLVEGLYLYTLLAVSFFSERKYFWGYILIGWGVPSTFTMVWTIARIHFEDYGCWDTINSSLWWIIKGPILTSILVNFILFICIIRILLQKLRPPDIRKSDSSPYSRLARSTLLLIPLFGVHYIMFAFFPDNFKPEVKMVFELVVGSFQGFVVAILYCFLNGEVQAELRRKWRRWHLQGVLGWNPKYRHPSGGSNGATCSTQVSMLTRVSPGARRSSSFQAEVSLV

VPAC2 = target: T2, VPAC2
T2 sequence (P41587 whole entry, species assumed, looked up): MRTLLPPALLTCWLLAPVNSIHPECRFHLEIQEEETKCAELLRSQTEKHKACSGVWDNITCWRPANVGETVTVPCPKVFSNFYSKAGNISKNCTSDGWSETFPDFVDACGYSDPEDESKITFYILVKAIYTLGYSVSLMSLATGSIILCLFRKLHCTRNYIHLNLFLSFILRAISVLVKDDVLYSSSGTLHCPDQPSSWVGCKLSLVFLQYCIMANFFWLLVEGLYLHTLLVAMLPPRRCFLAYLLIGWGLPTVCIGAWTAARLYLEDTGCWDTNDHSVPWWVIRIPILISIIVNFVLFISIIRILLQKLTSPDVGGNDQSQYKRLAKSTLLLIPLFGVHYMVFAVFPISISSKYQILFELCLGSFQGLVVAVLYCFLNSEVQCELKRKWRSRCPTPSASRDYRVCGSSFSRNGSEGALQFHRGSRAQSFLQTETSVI

[1] = target: human pituitary adenylate cyclase-activating polypeptide type I receptor (human) (UniProt P41586)
human pituitary adenylate cyclase-activating polypeptide type I receptor (human), sequence (P41586 21-468): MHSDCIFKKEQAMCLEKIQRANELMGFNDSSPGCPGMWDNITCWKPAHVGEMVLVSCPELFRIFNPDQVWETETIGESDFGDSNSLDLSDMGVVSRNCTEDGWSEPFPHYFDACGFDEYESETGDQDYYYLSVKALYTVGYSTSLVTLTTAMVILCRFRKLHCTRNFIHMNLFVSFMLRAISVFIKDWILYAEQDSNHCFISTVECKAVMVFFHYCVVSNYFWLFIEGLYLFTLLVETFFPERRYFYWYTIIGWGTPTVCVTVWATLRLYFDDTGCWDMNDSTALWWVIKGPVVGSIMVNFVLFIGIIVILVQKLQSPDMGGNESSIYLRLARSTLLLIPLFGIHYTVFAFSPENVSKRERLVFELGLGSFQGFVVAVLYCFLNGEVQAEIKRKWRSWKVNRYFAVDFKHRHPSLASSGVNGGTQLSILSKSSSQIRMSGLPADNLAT

Maxadilan, sequence (P30659 24-84 limits assumed): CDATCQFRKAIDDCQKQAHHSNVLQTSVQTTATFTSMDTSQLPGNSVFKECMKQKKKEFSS

Maxadilan (from UniProt P30659 24-84) (ligand)
VPAC1 EC50 (agonist activity) (VPAC1): > 1000 nM | VPAC2 EC50 (agonist activity) (VPAC2): > 1000 nM | PAC1 EC50 (agonist activity) [1]: 0.06 nM
